The labels stand for the following.
B1: FD 11A (antibody, V domains shown)
VH: EVQLVESGGGVVQPGRSLRLSCAASGFTFSSYGMHWVRQAPGKGLEWVAVIWYDGSNKYYADSVKGRFTISRDNSKNTLYLQMNSLRAEDTAVYYCAKGPDILTGYYNYYYYGMDVWGQGTMVTVSS
VL: QSVLTQPPSVSGAPGQRVTISCTGSSSNIGAGYDVHWYQQLPGTAPKLLIYGNSNRPSGVPDRFSGSKSGTSASLAITGLQAEDEADYYCQSYDSSLSGFYVVFGGGTKLTVL
B2: FI 4A (antibody, V domains shown)
VH: EVQLVESGGGLVKPGGSLRLSCAASGFTFSRFSMNWVRQAPGKGLEWVSSISSSGSYIYFADSVKGRFTISRDNAKNSLYLQMNSLRAEDTAIYYCATYLFGDSHTYWGQGTLVTVSS
VL: QSVLTQPHSVSESPGKTVTISCTGSSGSIASNYVQWYQQRPGSAPTTVIYEDNQRPSGVPDRFSGSIDSSSNSASLTISGLKTEDEADYYCQSYDSSNLHWVFGGGTKLTVL
B3: FN 12A (antibody, V domains shown)
VH: QVQLVQSGAEVKKPGSSVKVSCKASGGTFSSYAISWVRQAPGQGLEWMGRIIPILGIANYAQKFQGRVTITADKSTSTAYMELSSLRSEDTAVYYCARSGCSSTSCPSNLYYYYYGMDVWGQGTTVTVSS
VL: QSVLTQPPSVSAAPGQKVTISCSGSSSNIGNNYVSWYQQLPGTAPKLLIYDNNKRPSGIPDRFSGSKSGTSATLGITGLQTGDEADYYCGTWDSSLSALVFGGGTKLTVL
B4: FM 7B (antibody, V domains shown)
VH: EVQLVQSGAEVKKPGASVKVSCKASGYTFTSYAMHWVRQAPGQRLEWMGWINTGNGNTKYSQKFQGRVTITRDTSASTAYMELSSLRSEDTAVYYCARDPTYCSSTSCYPFSWFDPWGQGTLVTVSS
VL: NFMLTQPPSVSVAPGQTARITCGGNNIGSKSVHWYQQKPGQAPVLVVYDDSDRPSGIPERFSGSNSGNTATLTISRVEAGDEADYYCQVWDSTGDHSWVFGGGTKLTVL
B5: FI 1C (antibody, V domains shown)
VH: EVQLVESGGGLVKPGGSLRLSCAASGFTFSDYYMSWIRQAPGKGLEWVSYISSSGSTIYYADSVKGRFTISRDNAKNSLYLQMNSLRAEDTAVYYCARRSNRFLIAFDIWGQGTMVTVSS
VL: QSALTQPASVSGSPGQTITISCTGTSSDVGGYNYVSWYQQHPGKAPKLMIYEVSNRPSGVSNRFSGSKSGNTASLTISGLQAEDEADYYCSSYTSSSTLVVFGGGTKLTVP
B6: FI 3A (antibody, V domains shown)
VH: EVQLLESGGGLIQPGGSLRLSCAASGFTVSSNYMSWVRQAPGKGLEWVSVIYSGGSTYYADSVKGRFTISRDNSKNTLYLQMNSLRAEDTAVYYCARDHVRPGMNIWGQGTMVTVSS
VL: not shown
B7: EZ 7A (antibody, V domains shown)
VH: EVQLVESGAEVKKPGESLKISCKGSGYSFTSYWIGWVRQMPGKGLEWMGIIYPGDSDTRYSPSFQGQVTISADKSISTAYLQWSSLKASDTAMYYCARGWVYRGFPYYGMDVWGQGTMVTVSS
VL: QSALTQPRSVSGSPGQSVTISCTGTSSDVGGYNYVSWYQQHPGKAPKLMIYDVSKRPSGVPDRFSGSKSGNTASLTISGLQAEDEADYYCCSYAGSYTLVFGGGTKLTVL
B8: FD 5D (antibody, V domains shown)
VH: EVQLVESGGGLVQPGGSLRLSCAASGFTFSSYSMNWVRQAPGKGLEWVSYISSSSSTIYYADPVKGRFTISRDNAKNSLYLQMNSLRAEDTAVYYCASPGGITAAGTSVLFGYYGMDVWGQGTMVTVSS
VL: not shown
B9: FJ 10B (antibody, V domains shown)
VH: QVQLVQSGAEVKKPGESLRISCKGSGYSFTSYWISWVRQMPGKGLEWMGRIDPSDSYTNYSPSFQGHVTISADKSISTAYLQWSSLKASDTAMYYCARLDPRYGPDYYGMDVWGQGTTVTVSS
VL: AIRMTQSPSSLSASVGDRVTITCRASQSISSYLNWYQQKPGKAPKLLIHAASSLQSGVPSRFSGSGSGTDFTLTMSSLQPEDFATYYCQQSYSTPLTFGGGTKVEIR
B10: FB 1E (antibody, V domains shown)
VH: EVQLVESGAEVKKPGESLKISCQGSGYRFNSYWIAWVRQMPGKGLEWMGSIFPTDSDIRYNPSFQGQVTISADKSISIAYLQWSSLKASDTAIYYCARHWASMVRGVIRASHYYGMDVWGQGTTVTVSS
VL: QSVLTQPPSASGSPGQSVTISCSGASSDIGDYNYVSWYQQLPGKAPKLLIYEVTKRPSGVPDRFSGSKSGNTASLTVSGLQADDEADYYCSSYAFGGSDIRVFGGGTKLAVL
B11: FB 9D (antibody, V domains shown)
VH: B10 VH with E1Q, I58V, I78F
VL: B10 VL with S2P, D31K, I100T, A110T
B12: FJ 1C (antibody, V domains shown)
VH: QVQLQESGPGLVKPSETLSLTCTVSGYSISSGYYWGWIRQPPGKGLEWIGSIYHSGSTYYNPSLKSRVTISVDTSKNQFSLKLSSVTAADTAVYYCARDKALLWFGELFTNLFDYWGQGTLVTVSS
VL: QSALTQPASVSGSPGQSITISCTGTSSDVGGYNYVSWYQQHPGKAPKLMIYEVSNRPSGVSNRFSGSKSGNTASLTISGLQAEDEANYYCSSYTSSSTLVFGGGTKLTVL
B13: FG 12C (antibody, V domains shown)
VH: EVQLVESGGGLVQPGRSLRLSCAASGFTFDDYAMHWVRQAPGKGLEWVSGISWNSGSIGYADSVKGRFTISRDNAKNSLYLQMNSLRAEDTALYYCAKDMRVHDYGDYYFDYWGQGTLVTVSS
VL: SYELTQPPSVSVAPGKTARITCGGNNIGSKSVHWYQQKPGQAPVLVIYYDSDRPSGIPERFSGSNSGNTATLTISRVEAGDEADYYCQVWDSSSDHPVFGGGTKLTVL
B14: FN 8C (antibody, V domains shown)
VH: QVQLVESGGGVVQPGRSLRLSCAASGFTFSSYGMHWVRQAPGKGLEWVAVISYDGSNKYYADTVKGRFTISRDNSKNTLYLQMNSLRAEDTAVYYCARERTYYDILTGYRHYYGMDVWGQGTTVTVSS
VL: B13 VL with K16Q, I47V, Y49D, P97W
B15: FD 11C (antibody, V domains shown)
VH: EVQLLESGPGLVKPSETLSLTCTVSGGSISSSSYYWGWIRQPPGKGLEWIGSIYYSGSTYYNPSLKSRVTISVDTSKNQFSLKLSSVTAADTAVYYCAREYYYGSETKKYYYYYGMDVWGQGTTVTVSS
VL: not shown
B16: FD 7D (antibody, V domains shown)
VH: EVQLVESGAEVKKPGESLRISCKGSGYSFTSYWISWVRQMPGKGLEWMGRIDPSDSYTNYSPSFQGHVTISADKSISTAYLQWSSLKASDTAMYYCARHSDCSSTSCYFVDAFDIWGQGTMVTVSS
VL: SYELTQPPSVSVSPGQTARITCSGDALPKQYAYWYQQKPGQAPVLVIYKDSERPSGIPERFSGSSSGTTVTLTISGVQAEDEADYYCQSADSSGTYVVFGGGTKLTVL
B17: FD 11D (antibody, V domains shown)
VH: EVQLVESGGGVVQPGRSLRLSCAASGFTFSSYGMHWVRQAPGKGLEWVAVISYDGSNKYYADSVKGRFTISRDNSKNTLYLQMNSLRAEDTAVYYCAKEGAGSGWYRHHKPGYYFDYWGQGTLVTVSS
VL: not shown
B18: FD 10A (antibody, V domains shown)
VH: EVQLVESGGGLVQPGGSLRLSCAASGFTFSSYWMHWVRQAPGKGLVWVSRINSDGSSTSYADSVKGRFTISRDNAKNTLYLQMNSLRAEDTAVYYCANMAFDIWGQGTMVTVSS
VL: not shown
B19: FD 7C (antibody, V domains shown)
VH: QLQLQESGPGLVKPSETLSLTCTVSGGSISSYYWSWIRQPPGKGLEWIGYIYYSGSTNYNPSLKSRVTISVDTSKNQFSLKLSSVTAADTAVYYCARDYRFGELFGRFAWFDPWGQGTLVTVSS
VL: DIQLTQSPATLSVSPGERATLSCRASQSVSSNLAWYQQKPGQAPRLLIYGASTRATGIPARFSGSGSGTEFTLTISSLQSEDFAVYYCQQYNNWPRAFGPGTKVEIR
B20: FN 2C (antibody, V domains shown)
VH: EVQLLESGGGVVQPGRSLRLSCAASGFNFNNYGMHWVRQAPGKGLEWVATISYEGSKKFYVDSVKGRFTISKDNSKNTLYLQMNSLRVDDTAFYYCAKRREIFWLGEPPLSDAFDFWGQGTMVTVSS
VL: QSVLTQPPSVSGAPGQRVTISCTGSGSNIGAGYDVHWYQFLPGTAPQLLIYGNNNRPSGVPDRFSGSKSGTSASLAITGLQAEDEADYYCQSYDSSLSGSVFGGGTKLTVL
B21: FD 1E (antibody, V domains shown)
VH: EVQLLESGGGLVKPGGSLRLSCAASGFTFSSYSMNWVRQAPGKGLEWVSSISSSSSYIYYADSVKGRFTISRDNAKNSLYLQMNSLRAEDTAVYYCASLAAAGPETYYYYGMDVWGQGTMVTVSS
VL: not shown
B22: FD 11E (antibody, V domains shown)
VH: B21 VH with L5V
VL: not shown
B23: FD 8B (antibody, V domains shown)
VH: EVQLLESGAEVKKPGASVKVSCKVSGYTLTELSMHWVRQAPGKGLEWMGGFDPEDGETIYAQKFQGRVTMTEDTSTDTAYMELSSLRSEDTAVYYCATAAAINCSSTSCYYYYYYYGMDVWGQGTTVTVSS
VL: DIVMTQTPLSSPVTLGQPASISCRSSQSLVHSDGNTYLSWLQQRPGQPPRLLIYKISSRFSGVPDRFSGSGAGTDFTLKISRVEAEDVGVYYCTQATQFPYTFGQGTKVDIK

Substitutions are numbered along the chain they refer to.

The Kd is the equilibrium constant for the complex coming apart. A low value points to higher affinity.

In one experiment the target is T1, SARS-CoV-2 spike receptor binding domain (RBD) (SARS-CoV-2, UniProt P0DTC2 319-541). As to the kind of experiment: flow.
Turning to B1, binding was characterised by a dissociation constant (Kd) of 0.75 nM.
For the molecule B2, binding was characterised by a dissociation constant (Kd) of 7.9 nM.
Still for that read-out and setting: the figure for B3 is 1.12 nM.
B4 gave an equilibrium dissociation constant (Kd) of 0.64 nM.
Same read-out and setting: for B5 the value was 12.2 nM.

Another experiment concerns the target T1, SARS-CoV-2 spike receptor binding …. As to the kind of experiment: flow. This is another data set of the same source.
On to B6, for which the affinity, expressed as Kd, was 3.83 nM.
On to B7, for which the Kd turned out to be 11.4 nM.
B8: the Kd came out at 0.93 nM.
The same measure, in the same setting: the figure for B9 is 3.73 nM.

A further experiment addresses SARS-CoV-2 spike extracellular domain (SARS-CoV-2, UniProt P0DTC2 14-1213). As to the kind of experiment: ELISA.
Turning to B10, binding was put at a Kd of 0.41 nM.
On the same count and under the same terms, the figure for B11 is 0.29 nM; for B12 it is 0.57 nM; for B13 it is 2.54 nM.
The same measure, in the same setting: the figure for B14 is 63.9 nM; for B6 it is 6.61 nM; for B15 it is 0.98 nM.
On the same count and under the same terms, the figure for B16 is 64 nM.
B7 registered a Kd of 1.08 nM.
On the same count and under the same terms, the figure for B17 is 3.54 nM.
Same read-out and setting: the figure for B18 is 0.42 nM; for B1 it is 0.4 nM.
On the same count and under the same terms, the figure for B8 is 0.58 nM; for B2 it is 0.41 nM; for B19 it is 0.18 nM.
As for B3, binding was characterised by a dissociation constant (Kd) of 0.38 nM.
Consider B4, for which the Kd was found to be 0.51 nM.
The molecule B20 yielded a Kd of 0.3 nM.
Still for that read-out and setting: the figure for B5 is 1.18 nM; for B21 it is 20.5 nM; for B22 it is 19.5 nM.
Still for that read-out and setting: for B23 the value was 10.4 nM.
B9 had a dissociation constant (Kd) of 7.57 nM.

The record behind these values is US20230279079A1 (published 2023).
